# Reference: article PMC2783421 (Developmental biology, 2009)
# Residue numbers refer to the chain shown, from its start. Names and notes keep the numbering of the source.
# B1: Myc-tagged Gα4 subunit (wild type) (natural protein, Dictyostelium discoideum, UniProt P34042 1-345, looked up)
# chain: MRFKCFGSEETEQSSKIDKSIETDRRKLRKDVKLLLLGPGESGKSTIFKQMKIIQEDGGYSVEELLEYRAFVYSNCISQMEALLTASAKLNIELEVENKQRAANVLRRTIGNEPWLLLAADIKHLWEDKGIKETYAQKDKHFQLNDSAAYFFDNIDRYMREDFVPNEQDVLRCRVRTTGIQESEFTFDKIRLKIVDVGGQRSQRRKWIHCFDCVTAVIFVAAMSDYDQVLREDESVNRTRESLALFKEIVNCDYFKETPIVLFLNKKDLFKEKLKRVPLQSCFSDYTGPNKYKDAAMFIQSQYLAQGPSPRTIYTHATCAVDTENIKFVFRAVRQTILSQALEHF
# B2: Myc-tagged constitutively active Gα4^Q200L subunit (natural protein, Dictyostelium discoideum, UniProt P34042 1-345, looked up)
# chain: B1 chain with Q200L
# B3: Myc-tagged Gα4^(R107E, R108E, Q200L) subunit (natural protein, Dictyostelium discoideum, UniProt P34042 1-345, looked up)
# chain: B1 chain with R107E, R108E, Q200L
# B4: Myc-tagged Gα4^R107E,R108E subunit (altered D-motif) (natural protein, Dictyostelium discoideum, UniProt P34042 1-345, looked up)
# chain: B1 chain with R107E, R108E
# Target: T1, His6-tagged ERK2 (Dictyostelium discoideum, UniProt Q54QB1 1-369)
# T1 sequence (looked up): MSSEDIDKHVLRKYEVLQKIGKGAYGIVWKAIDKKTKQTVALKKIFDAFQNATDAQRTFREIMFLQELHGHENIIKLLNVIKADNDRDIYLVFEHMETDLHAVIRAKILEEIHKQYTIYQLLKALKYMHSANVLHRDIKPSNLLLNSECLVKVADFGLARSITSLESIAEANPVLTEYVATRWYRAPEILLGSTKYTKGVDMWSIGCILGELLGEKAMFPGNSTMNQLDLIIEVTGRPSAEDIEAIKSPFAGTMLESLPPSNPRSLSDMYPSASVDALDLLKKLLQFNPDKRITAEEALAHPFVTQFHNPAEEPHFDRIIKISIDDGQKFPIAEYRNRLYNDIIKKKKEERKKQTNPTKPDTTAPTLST
# Assay: pull-down
row,Binder,pull-down yield (percent of the cell extract)
1,B1,~22%
2,B2,~9%
3,B3,~4%
4,B4,~9%
